Experimental data reported in US20240018245A1 (Genentech, published 2024).

Experiments:
[1] = molecular target: CD3 on T cells of human peripheral blood mononuclear cells (PBMCs) (human, UniProt P07766 23-207); test: cell-based or functional assay
[2] = molecular target: T1, FcRH5 (fragment crystallizable receptor-like 5) on MOLP-2 cells (human, UniProt Q96RD9 16-977); test: cell-based or functional assay
T1 sequence (looked up): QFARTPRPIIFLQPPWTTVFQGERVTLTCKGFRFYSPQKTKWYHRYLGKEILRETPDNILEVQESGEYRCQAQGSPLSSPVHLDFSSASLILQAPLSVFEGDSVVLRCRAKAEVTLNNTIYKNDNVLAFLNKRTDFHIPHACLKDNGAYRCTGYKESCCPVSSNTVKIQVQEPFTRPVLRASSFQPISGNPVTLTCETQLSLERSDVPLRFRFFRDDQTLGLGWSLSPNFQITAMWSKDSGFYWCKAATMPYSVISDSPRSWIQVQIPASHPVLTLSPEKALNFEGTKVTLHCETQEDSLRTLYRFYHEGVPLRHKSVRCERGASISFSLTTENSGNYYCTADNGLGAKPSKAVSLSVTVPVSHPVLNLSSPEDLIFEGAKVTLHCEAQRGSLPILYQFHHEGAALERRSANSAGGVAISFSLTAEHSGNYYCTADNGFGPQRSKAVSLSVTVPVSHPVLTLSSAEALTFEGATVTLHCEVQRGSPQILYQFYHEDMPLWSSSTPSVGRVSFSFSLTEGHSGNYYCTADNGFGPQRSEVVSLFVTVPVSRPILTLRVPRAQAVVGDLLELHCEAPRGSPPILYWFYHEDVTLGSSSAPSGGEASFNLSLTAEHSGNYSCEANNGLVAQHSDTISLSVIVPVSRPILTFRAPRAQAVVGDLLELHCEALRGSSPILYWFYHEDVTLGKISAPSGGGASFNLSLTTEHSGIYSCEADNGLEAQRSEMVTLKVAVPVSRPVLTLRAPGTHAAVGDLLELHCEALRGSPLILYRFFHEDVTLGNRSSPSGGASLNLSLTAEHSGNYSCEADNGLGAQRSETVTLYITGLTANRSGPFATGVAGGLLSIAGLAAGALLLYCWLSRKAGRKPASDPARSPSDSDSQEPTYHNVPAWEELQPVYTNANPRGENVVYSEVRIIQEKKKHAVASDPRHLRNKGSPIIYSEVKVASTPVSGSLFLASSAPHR

[3] = molecular target: T2, CD3 (cluster of differentiation 3) (UniProt P07766 23-126); test: method not stated; monovalent KD used to calculate CD3 receptor occupancy
T2 construct: also called CD3 antigen
T2 sequence (P07766 23-126): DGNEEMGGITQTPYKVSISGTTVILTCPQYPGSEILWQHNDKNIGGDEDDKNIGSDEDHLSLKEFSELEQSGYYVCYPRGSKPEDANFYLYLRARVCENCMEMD

CD3 on T cells of human peripheral blood mononuclear cells (PBMCs), sequence (P07766 23-207): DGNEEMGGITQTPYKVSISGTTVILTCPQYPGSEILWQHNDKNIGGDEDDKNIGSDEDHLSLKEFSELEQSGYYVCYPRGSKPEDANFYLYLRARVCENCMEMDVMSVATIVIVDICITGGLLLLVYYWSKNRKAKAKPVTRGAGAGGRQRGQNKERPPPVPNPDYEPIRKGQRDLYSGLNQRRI

EC50 for T-cell activation in the in vitro human PBMC:MOLP-2 co-culture [1]: 0.0588 µg/mL
EC50 for T-cell activation in the in vitro human PBMC:MOLP-2 co-culture [2]: 0.0588 µg/mL
Kd [3]: 2.6 nM
B1: cevostamab (bispecific antibody, human IgG1, kappa, N297G)
heavy 1: not shown
light 1: DIQMTQSPSSLSASVGDRVTITCKASQDVRNLVVWFQQKPGKAPKLLIYSGSYRYSGVPSRFSGSGSGTDFTLTISSLQPEDFATYYCQQHYSPPYTFGQGTKVEIKRTVAAPSVFIFPPSDEQLKSGTASVVCLLNNFYPREAKVQWKVDNALQSGNSQESVTEQDSKDSTYSLSSTLTLSKADYEKHKVYACEVTHQGLSSPVTKSFNRGEC
heavy 2: EVQLVQSGAEVKKPGASVKVSCKASGFTFTSYYIHWVRQAPGQGLEWIGWIYPENDNTKYNEKFKDRVTITADTSTSTAYLELSSLRSEDTAVYYCARDGYSRYYFDYWGQGTLVTVSSASTKGPSVFPLAPSSKSTSGGTAALGCLVKDYFPEPVTVSWNSGALTSGVHTFPAVLQSSGLYSLSSVVTVPSSSLGTQTYICNVNHKPSNTKVDKKVEPKSCDKTHTCPPCPAPELLGGPSVFLFPPKPKDTLMISRTPEVTCVVVDVSHEDPEVKFNWYVDGVEVHNAKTKPREEQYGSTYRVVSVLTVLHQDWLNGKEYKCKVSNKALPAPIEKTISKAKGQPREPQVYTLPPSREEMTKNQVSLSCAVKGFYPSDIAVEWESNGQPENNYKTTPPVLDSDGSFFLVSKLTVDKSRWQQGNVFSCSVMHEALHNHYTQKSLSLSPGK
light 2: not shown
notes: Humanized full-length non-glycosylated IgG1 kappa, knobs-into-holes; also called BFCR4350A; RO7187797
